{
  "source": "patent US20160003843A1",
  "about": "(published 2016)",
  "key": {"[1]": {"target": "Tyr mutant peptide (Tyr at position 8 of …)", "assay": "competition phage ELISA; Asp8 to Tyr peptide as soluble competitor"}, "[2]": {"target": "T1, unphosphorylated Ser peptide (Ser at position 8 of …) (also: fused to NusA, biotinylated on biotin acceptor peptide (BirA), N-terminal His6 tag)", "T1 construct": "also called Ser/Thr (Ser member); not shown: N-terminal His6 tag and biotin acceptor peptide; NusA, fusion partner", "T1 chain": "KGNYVVTSH", "assay": "competition phage ELISA; Asp8 to Ser peptide as soluble competitor", "excerpt": "Without being bound by theory, the carboxylate group of Asp8 residue might mimic a phosphorylated residue and thus, the Ab can bind peptides with pSer, pThr, or possibly pTyr in place of Asp8 (Table 5).\nVarious concentrations of Fab-phage were mixed with a fixed concentration of biotinylated peptide and captured on the NeutrAvidin-coated wells for fifteen minutes. The bound phage were then detected using a horseradish peroxidase (HRP)-conjugated anti-M13 monoclonal (GE Healthcare). For phage competition ELISAs, plates were coated with 10 μg/mL NusA-[…] (the native target for the 1i8i Fab and a weak binder to pSAb, pSTAb, and pYAb), and blocked with 2% BSA. Sub-saturating levels of phage were then pre-bound to the various peptide antigens for two hours at 20° C. and then captured on the NusA-peptide coated plates for fifteen minutes. […] Bound scFv-Fc were detected with HRP-conjugated Protein A (Pierce)."}, "[3]": {"target": "T2, wild-type peptide KGNYVVTDH (NusA-KGNYVVTDH) (also: fused to NusA, biotinylated on biotin acceptor peptide (BirA), N-terminal His6 tag)", "T2 construct": "also called WT Asp; the native target for the 1i8i Fab; not shown: N-terminal His6 tag and biotin acceptor peptide; NusA, fusion partner", "T2 chain": "KGNYVVTDH", "assay": "SPR (Biacore 4000); biotinylated antigen captured on NeutrAvidin CM5 chip, Fab in flow; 1:1 Langmuir fit", "experimental": "Surface plasmon resonance data were measured on a Biacore model 4000 (Biacore, Uppsala, Sweden). All proteins were in TBS containing 0.1 mg/mL BSA and 0.01% Tween-20. A Biacore CM5 chip was coated with NeutrAvidin at 3000 RU and biotinylated antigens were captured at <100 RU."}, "[4]": {"target": "Ala mutant peptide (Ala at position 8 of …)", "assay": "competition phage ELISA; Asp8 to Ala peptide as soluble competitor"}, "[5]": {"target": "T3, unphosphorylated Thr peptide (Thr at position 8 of …)", "T3 sequence (chain, enzymatically biotinylated on the biotin acceptor peptide (BirA))": "KGNYVVTTH", "assay": "competition phage ELISA; Asp8 to Thr peptide as soluble competitor"}},
  "note": "Ends that are not written are not given here.",
  "data": [
    {"binder": "humanized Fab (humanized version of the mouse 1i8i Fab; parent scaffold, CDR H2 loop STGGYN) (Fab, V domains shown, also called parent Fab; humanized scaffold) VH: EVQLVESGGGLVQPGGSLRLSCVTSGFTFRKFGMSWVRQAPGKGLEWVASISTGGYNTYYSDSVKGRFTISRDNSKNTLYLQMNSLRAEDTAVYYCTRGYSSTSYAMDYWGQGTLVTVSS VL: DIVLTQSPATLSLSPGERATLSCMTSTDIDDDMNWYQQKPGQAPRLLISEGNTLRPGVPARFSGSGSGTDFTLTISSLEPEDFAVYYCLQSFNVPLTFGQGTKVEIKR", "values": [
      {"measurement": "fold less binding than to the wild-type Asp8 peptide", "setting": "[1]", "result": "> 100", "unit": "fold"},
      {"measurement": "fold less binding than to the wild-type Asp8 peptide", "setting": "[2]", "result": "> 100", "unit": "fold"},
      {"measurement": "Kd", "setting": "[3]", "result": 9.6, "unit": "nM"},
      {"measurement": "koff", "setting": "[3]", "result": 0.0032, "unit": "s⁻¹"},
      {"measurement": "kon", "setting": "[3]", "result": 338000, "unit": "M⁻¹ s⁻¹"},
      {"measurement": "fold less binding than to the wild-type Asp8 peptide", "setting": "[4]", "result": "> 100", "unit": "fold"},
      {"measurement": "fold less binding than to the wild-type Asp8 peptide", "setting": "[5]", "result": "> 100", "unit": "fold"}
    ]}
  ]
}
